Experiments:
[1] = target: FLAG-tagged BRD4-S(a) purified from insect Sf9 cells (human, UniProt O60885-2 1-722); test: pull-down
[2] = target: FLAG-tagged BRD4-L purified from insect Sf9 cells (human, UniProt O60885-1 1-1362); test: pull-down

Row | binding result [1] | binding result [2] | Binder
1 | binds | binds | FLAG-tagged EN1 purified from bacteria (natural protein, UniProt Q05925 1-392, looked up) MEEQQPEPKSQRDSALGAAAAATPGGLSLSLSPGASGSSGSGSDGDSVPVSPQPAPPSPPAAPCLPPLAHHPHLPPHPPPPPPQHLAAPAHQPQPAAQLHRTTNFFIDNILRPDFGCKKEQPPPQLLVAAAARGGAGGGGRVERDRGQTAAGRDPVHPLGTRAPGAASLLCAPDANCGPPDGSQPAAAGAGASKAGNPAAAAAAAAAAVAAAAAAAAAKPSDTGGGGSGGGAGSPGAQGTKYPEHGNPAILLMGSANGGPVVKTDSQQPLVWPAWVYCTRYSDRPSSGPRTRKLKKKKNEKEDKRPRTAFTAEQLQRLKAEFQANRYITEQRRQTLAQELSLNESQIKIWFQNKRAKIKKATGIKNGLALHLMAQGLYNHSTTTVQDKDESE
2 | binds | binds | FLAG-tagged EN2 purified from bacteria (natural protein, UniProt P19622 1-333, looked up) MEENDPKPGEAAAAVEGQRQPESSPGGGSGGGGGSSPGEADTGRRRALMLPAVLQAPGNHQHPHRITNFFIDNILRPEFGRRKDAGTCCAGAGGGRGGGAGGEGGASGAEGGGGAGGSEQLLGSGSREPRQNPPCAPGAGGPLPAAGSDSPGDGEGGSKTLSLHGGAKKGGDPGGPLDGSLKARGLGGGDLSVSSDSDSSQAGANLGAQPMLWPAWVYCTRYSDRPSSGPRSRKPKKKNPNKEDKRPRTAFTAEQLQRLKAEFQTNRYLTEQRRQSLAQELSLNESQIKIWFQNKRAKIKKATGNKNTLAVHLMAQGLYNHSTTAKEGKSDSE
